Assay results published in patent US20240352117A1.

Target: natural TSLP
Test: cell-based or functional assay

Substance Tezepelumab (antibody) has an IC50 of inhibiting STAT5 phosphorylation in SW756-STAT5-Luciferase reporter gene cells induced by natural TSLP of 1.45 ng/mL.
